Measurements: patent publication US20240392020A1 (JIANGSU HENGRUI PHARMACEUTICALS, published 2024)
Where two headings read alike, the source gives them in different places.

Legend:
human TIGIT-his = target: T1, human TIGIT-his (human, UniProt Q495A1 22-141, limits assumed); experiment: SPR Biacore T200, antibody captured on Protein A chip
T1 construct: bought; also called hTIGIT
T1 sequence (looked up): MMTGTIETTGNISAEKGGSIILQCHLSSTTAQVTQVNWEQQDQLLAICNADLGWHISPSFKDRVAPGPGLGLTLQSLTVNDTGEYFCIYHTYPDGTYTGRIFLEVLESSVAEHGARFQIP
Protocol: (§1) After dissociation was completed for each cycle, the biosensor chip was washed with 10 mM Gly-HCl at pH 1.5 for regeneration. Data were fitted using a 1:1 model.

hB7H3 antigen protein = target: T2, hB7H3 antigen protein (human, UniProt Q5ZPR3 29-461); experiment: as above
T2 construct: prepared in the laboratory
T2 sequence: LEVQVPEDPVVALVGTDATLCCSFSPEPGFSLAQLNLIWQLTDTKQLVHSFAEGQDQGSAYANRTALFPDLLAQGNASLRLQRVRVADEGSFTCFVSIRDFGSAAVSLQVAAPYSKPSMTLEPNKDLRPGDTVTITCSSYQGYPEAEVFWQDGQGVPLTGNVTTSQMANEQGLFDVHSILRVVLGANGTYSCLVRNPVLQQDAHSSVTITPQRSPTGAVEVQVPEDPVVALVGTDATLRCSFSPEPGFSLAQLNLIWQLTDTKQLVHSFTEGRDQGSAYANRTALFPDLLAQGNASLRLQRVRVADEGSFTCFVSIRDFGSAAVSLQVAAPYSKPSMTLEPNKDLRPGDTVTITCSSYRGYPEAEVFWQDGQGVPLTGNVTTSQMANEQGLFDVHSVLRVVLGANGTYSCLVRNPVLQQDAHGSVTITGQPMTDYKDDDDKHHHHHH
Protocol: The affinity of a test antibody for an antigen protein was determined by using a Biacore T200 (GE) instrument. […] The data obtained from the experiment was fitted with BIAevaluation version 4.1, GE software using a (1:1) Langmuir model to obtain affinity values.

[1] = target: T3, B7H3 on the recombinant cell line CT26-B7H3 (UniProt Q5ZPR3 29-534, limits assumed); experiment: FACS, CT26-B7H3 cells
T3 construct: whole, on cells
T3 sequence (looked up): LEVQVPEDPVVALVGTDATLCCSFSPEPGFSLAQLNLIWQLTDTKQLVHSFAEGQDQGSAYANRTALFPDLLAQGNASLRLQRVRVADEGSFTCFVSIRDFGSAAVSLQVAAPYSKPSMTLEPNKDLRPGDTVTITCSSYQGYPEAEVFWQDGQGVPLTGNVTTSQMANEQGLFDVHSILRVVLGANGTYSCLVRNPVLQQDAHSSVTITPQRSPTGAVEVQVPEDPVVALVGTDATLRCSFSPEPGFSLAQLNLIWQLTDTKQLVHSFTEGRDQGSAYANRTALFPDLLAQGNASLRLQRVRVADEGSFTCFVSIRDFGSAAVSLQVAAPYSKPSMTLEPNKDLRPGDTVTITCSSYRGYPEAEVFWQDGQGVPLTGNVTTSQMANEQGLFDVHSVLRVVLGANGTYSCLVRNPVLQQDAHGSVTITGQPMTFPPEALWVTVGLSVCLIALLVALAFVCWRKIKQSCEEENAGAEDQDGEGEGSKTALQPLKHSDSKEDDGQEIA

CEA on MKN45 cells [2] = target: T4, CEA on MKN45 cells (UniProt P06731 35-685); experiment: FACS, MKN45 cells
T4 construct: whole, on cells
T4 sequence (looked up): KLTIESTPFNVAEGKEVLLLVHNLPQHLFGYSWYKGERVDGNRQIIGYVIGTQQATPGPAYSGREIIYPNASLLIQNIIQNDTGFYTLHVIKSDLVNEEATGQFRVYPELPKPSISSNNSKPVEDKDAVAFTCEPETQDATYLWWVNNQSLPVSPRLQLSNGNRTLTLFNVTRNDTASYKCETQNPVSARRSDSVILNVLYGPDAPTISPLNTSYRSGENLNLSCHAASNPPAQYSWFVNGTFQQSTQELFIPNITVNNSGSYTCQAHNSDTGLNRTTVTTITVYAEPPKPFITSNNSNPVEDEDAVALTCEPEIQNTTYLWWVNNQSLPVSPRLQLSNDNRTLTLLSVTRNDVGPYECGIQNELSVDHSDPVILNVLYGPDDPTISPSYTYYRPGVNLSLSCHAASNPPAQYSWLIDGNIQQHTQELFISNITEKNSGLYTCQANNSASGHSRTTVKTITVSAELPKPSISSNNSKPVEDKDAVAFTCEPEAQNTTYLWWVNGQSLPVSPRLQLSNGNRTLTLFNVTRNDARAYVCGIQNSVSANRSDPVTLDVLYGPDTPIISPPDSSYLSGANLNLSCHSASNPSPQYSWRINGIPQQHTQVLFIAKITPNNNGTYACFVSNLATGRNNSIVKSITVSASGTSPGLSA

CEA on MKN45 cells [3] = target: T4, CEA on MKN45 cells; experiment: FACS, MKN45 cells; remark: listed apart in the source
human PDL1-his = target: T5, human PDL1-his (human, UniProt Q9NZQ7 19-239); experiment: SPR Biacore T200, antibody captured on Protein A chip
T5 construct: bought; also called hPDL1
T5 sequence (Q9NZQ7 19-239 limits assumed): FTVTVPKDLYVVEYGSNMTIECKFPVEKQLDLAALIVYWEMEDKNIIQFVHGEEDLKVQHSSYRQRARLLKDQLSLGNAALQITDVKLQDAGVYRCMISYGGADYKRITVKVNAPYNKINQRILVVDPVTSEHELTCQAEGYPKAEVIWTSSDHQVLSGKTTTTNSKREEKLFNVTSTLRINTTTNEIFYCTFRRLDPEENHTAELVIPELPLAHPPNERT
Protocol: as §1

hP40 = target: T6, hP40 (human, UniProt P29460 23-328); experiment: ELISA
T6 construct: bought
T6 sequence (looked up): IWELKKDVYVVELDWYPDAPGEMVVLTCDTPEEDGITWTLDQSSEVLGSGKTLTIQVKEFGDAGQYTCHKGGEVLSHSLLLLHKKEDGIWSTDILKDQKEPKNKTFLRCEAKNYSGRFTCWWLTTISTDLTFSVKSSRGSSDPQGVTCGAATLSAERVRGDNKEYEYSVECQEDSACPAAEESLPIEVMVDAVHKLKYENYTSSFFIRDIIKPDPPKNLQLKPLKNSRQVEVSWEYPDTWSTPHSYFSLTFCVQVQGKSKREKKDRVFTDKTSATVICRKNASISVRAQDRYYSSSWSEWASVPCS
Protocol: (§2) For an antibody targeting a soluble protein, the binding activity of the antibody against the soluble protein was detected by ELISA. […] After the blocking was completed, the blocking solution was discarded; and the plate was washed 3 times with a PBST buffer (pH 7.4, PBS containing 0.1% tween-20). 100 μL of the antibody solution diluted in a gradient was added to each well, and the mixture was incubated at 37° C. for 1 h. After the incubation was completed, the plate was washed 3 times with PBST. […] The plate was washed 3 times with PBST. […] The reaction was stopped by adding 50 μL of 1 M H₂SO₄ to each well. The absorbance values at 450 nm were read on a microplate reader, the binding curves of the antibodies to an antigen were fitted with software, and the EC₅₀ values were calculated.

hBAFF = target: T7, hBAFF (human, UniProt Q9Y275 134-285); experiment: ELISA
T7 construct: bought
Protocol: as §2

B1: h1708-04 (antibody, human IgG1, kappa, V domains shown)
VH: EVQLVQSGAEVKKPGASVKVSCKASGYTFTNYWMHWVRQAPGQGLEWMGRIDPDSTGSKYNEKFKTRVTMTRDTSTSTVYMELSSLRSEDTAVYYCAREGAYGYYFDYWGQGTLVTVSS
VL: DIQMTQSPSSLSASVGDRVTITCRASENIYSYLAWYQQKPGKSPKLLIYNARTLAEGVPSRFSGSGSGTDFTLTISSLQPEDFATYYCQYHSGSPLPFGGGTKVEIKR
notes: also called T-IgG1; TIGIT monoclonal antibody
B1 showed a Kd (human TIGIT-his) of 0.0651 nM, a koff (human TIGIT-his) of 0.000139 s⁻¹ and a kon (human TIGIT-his) of 2.14e+06 M⁻¹ s⁻¹.

B2: F0 (antibody, human IgG1, lambda)
heavy: not shown
light: DTVVTQEPSFSVSPGGTVTLTCGLSSGSVSTSHYPSWYQQTPGQAPRMLIYNTNTRSSGVPDRFSGSILGNKAALTITGAQADDESDYYCAIHVDRDIWVFGGGTKLTVLGQPKAAPSVTLFPPSSEELQANKATLVCLISDFYPGAVTVAWKADSSPVKAGVETTTPSKQSNNKYAASSYLSLTPEQWKSHRSYSCQVTHEGSTVEKTVAPTECS
Binder B2 has a Kd (hB7H3 antigen protein) of 13.1 nM, a koff (hB7H3 antigen protein) of 0.00206 s⁻¹ and a kon (hB7H3 antigen protein) of 157000 M⁻¹ s⁻¹. The EC50 [1] was 1.29 nM.

B3: N3 (antibody)
heavy: not shown
light: EIVLTQSPGTLSLSPGERATLSCRASQNINNRFLAWYQQRPGQAPRLLIYAASSRATGVPDRFSGSGSGTDFTLTISRLEAEDFAMYHCQQYGSFPRTFGQGTMVDIKSGAPRFLTRPKAFVVSVGKDATLSCQIVGNPTPQVSWEKDQQPVAAGARFRLAQDGDLYRLTILDLALGDSGQYVCRARNAIGEAFAAVGLQVDAEA
Binder B3 has an EC50 (CEA on MKN45 cells [2]) of 4.5 nM and an EC50 (CEA on MKN45 cells [3]) of 6.45 nM.

B4: N6 (antibody)
heavy: not shown
light: EIVLTQSPGTLSLSPGERATLSCRASQNINNRFLAWYQQRPGQAPRLLIYAASSRATGVPDRFSGSGSGTDFTLTISRLEAEDFAMYHCQQYGSFPRTFGQGTMVDIKSGCPRFLTRPKAFVVSVGKDATLSSQIVGNPTPQVSWEKDQQPVAAGARFRLAQDGDLYRLTILDLALGDSGQYVSRARNAIGEAFAAVGLQVDAEA
Work on B4 yielded an EC50 (CEA on MKN45 cells [2]) of 8.4 nM.

B5: h1831K (antibody, human IgG1, kappa, V domains shown)
VH: QVQLVQSGAEVKKPGASVKVSCKASGYTFTSYWMHWVRQAPGQGLEWMGRITPSSGFAMYNEKFKNRVTMTRDTSTSTVYMELSSLRSEDTAVYYCARGGSSYDYFDYWGQGTTVTVSS
VL: DIVLTQSPASLAVSPGQRATITCRASESVSIHGTHLMHWYQQKPGQPPKLLIYAASKLESGVPARFSGSGSGTDFTLTINPVEAEDTANYYCQQSFEDPLTFGQGTKLEIKR
notes: also called P-IgG1; PDL1 monoclonal antibody
With B5 the Kd (human PDL1-his) was 0.0417 nM, the koff (human PDL1-his) was 8.67e-05 s⁻¹ and the kon (human PDL1-his) was 2.08e+06 M⁻¹ s⁻¹.

B6: N4 (antibody)
heavy: not shown
light: EIVLTQSPGTLSLSPGERATLSCRASQNINNRFLAWYQQRPGQAPRLLIYAASSRATGVPDRFSGSGSGTDFTLTISRLEAEDFAMYHCQQYGSFPRTFGQGTMVDIKQGSPPCFLRFPRPVRVVSGAEAELKCVVLGEPPPVVVWEKGGQQLAASERLSFPADGAEHGLLLTAALPTDAGVYVCRARNAAGEAYAAAAVTVLEPP
For B6, the EC50 (CEA on MKN45 cells [2]) was 4.6 nM and the EC50 (CEA on MKN45 cells [3]) was 5.93 nM.

B7: N7 (antibody)
heavy: not shown
light: EIVLTQSPGTLSLSPGERATLSCRASQNINNRFLAWYQQRPGQAPRLLIYAASSRATGVPDRFSGSGSGTDFTLTISRLEAEDFAMYHCQQYGSFPRTFGQGTMVDIKQGSPPEFLRFPRPVRVVSGAEAELKCVVLGEPPPVVVWEKGGQQLAASERLSFPADGAEHGLLLTAALPTDAGCYVCRARNAAGEAYAAAAVTVLEPP
B7 was tested, and the EC50 (CEA on MKN45 cells [2]) was 2.8 nM.

B8: N8 (antibody)
heavy: not shown
light: EIVLTQSPGTLSLSPGERATLSCRASQNINNRFLAWYQQRPGQAPRLLIYAASSRATGVPDRFSGSGSGTDFTLTISRLEAEDFAMYHCQQYGSFPRTFGQGTMVDIKQGSPPEFLRFPRPVRVVSGAEAELKSVVLGEPPPVVVWEKGGQQLAASERLSFPADGAEHGLLLTAALPTDAGCYVSRARNAAGEAYAAAAVTVLEPP
B8 was tested, and the EC50 (CEA on MKN45 cells [2]) was 2.6 nM.

B9: BU2 (bispecific antibody, human IgG1, kappa, L234A L235A)
heavy 1: not shown
light 1: not shown
heavy 2: QVQLQQSGAEVKKPGSSVRVSCKASGGTFNNNAINWVRQAPGQGLEWMGGIIPMFGTAKYSQNFQGRVAITADESTGTASMELSSLRSEDTAVYYCARSRDLLLFPHHALSPWGRGTMVTVSSGGGGSGIPPKIECLPSDISIDEGKVLTVASAFTGEPTPEVTWSTGGRKIHSQEQGRFHIESTEDLTTLIISDVQKQDGGLYSLSLGNEFGSDSATVNIHIRSIDKTHTCPPCPAPEAAGGPSVFLFPPKPKDTLMISRTPEVTCVVVDVSHEDPEVKFNWYVDGVEVHNAKTKPREEQYNSTYRVVSVLTVLHQDWLNGKEYKCKVSNKALPAPIEKTISKAKGQPREPQVCTLPPSREEMTKNQVSLSCAVKGFYPSDIAVEWESNGQPENNYKTTPPVLDSDGSFFLVSKLTVDKSRWQQGNVFSCSVMHEALHNHYTQKSLSLSPGK
light 2: SSELTQDPAVSVALGQTVRVTCQGDSLRSYYASWYQQKPGQAPVLVIYGKNNRPSGIPDRFSGSSSGNTASLTITGAQAEDEADYYCSSRDSSGNHWVFGGGTELTVLGGGGSDQPQFSGAPRFLTRPLSYVVSVGKDASLSSQIVGNPTPQVSWEKDQLPVTAGARFRLAQDGDLYRLKILDLQLSDSGQYVSRARNAIGEAFACVGLEVGAEA
Work on B9 yielded an EC50 (hP40) of 0.0567 nM and an EC50 (hBAFF) of 0.469 nM.

B10: BU3 (bispecific antibody, human IgG1, kappa, L234A L235A)
heavy 1: not shown
light 1: SSELTQDPAVSVALGQTVRVTCQGDSLRSYYASWYQQKPGQAPVLVIYGKNNRPSGIPDRFSGSSSGNTASLTITGAQAEDEADYYCSSRDSSGNHWVFGGGTELTVLGGGGSDQPQFSGAPRFLTRPLSYVVSVGKDASLSSQIVGNPTPQVSWEKDQLPVTAGARFRLAQDGDLYRLKILDLQLSDSGQYVSRARNAIGEAFACVGLEVGAEA
heavy 2: EVQLVQSGAEVKKPGESLKISCKGSGYSFTTYWLGWVRQMPGKGLDWIGIMSPVDSDIRYSPSFQGQVTMSVDKSITTAYLQWNSLKASDTAMYYCARRRPGQGYFDFWGQGTLVTVSSASTKGPSVFPLAPSSKSTSGGTAALGCLVKDYFPEPVTVSWNSGALTSGVHTFPAVLQSSGLYSLSSVVTVPSSSLGTQTYICNVNHKPSNTKVDKKVEPKSCDKTHTCPPCPAPEAAGGPSVFLFPPKPKDTLMISRTPEVTCVVVDVSHEDPEVKFNWYVDGVEVHNAKTKPREEQYNSTYRVVSVLTVLHQDWLNGKEYKCKVSNKALPAPIEKTISKAKGQPREPQVCTLPPSREEMTKNQVSLSCAVKGFYPSDIAVEWESNGQPENNYKTTPPVLDSDGSFFLVSKLTVDKSRWQQGNVFSCSVMHEALHNHYTQKSLSLSPGK
light 2: not shown
With B10 the EC50 (hP40) was 0.224 nM and the EC50 (hBAFF) was 0.413 nM.
